The values that follow come from patent US20250319216A1, “RADIOPHARMCEUTICAL COMPLEXES TARGETING PROSTATE-SPECIFIC MEMBRANE ANTIGEN AND ITS COMBINATIONS” (Bayer Aktiengesellschaft, priority 2022, published 2025).

Marks after values point to notes of the source that are not given here.

The test system of one data set is 22Rv1 tumors. As to the kind of experiment: In vivo efficacy in 22Rv1 prostate cancer model. Details: species or system mice. Conditions: 22Rv1, day 16. The procedure:
The in vivo antitumor efficacy of 225Ac-pelgi in combination with darolutamide was evaluated in the androgen-independent prostate cancer model 22Rv1.

Data set [1] deals with PSMA expression in VCaP cells. As to the kind of experiment: PSMA protein expression by flow cytometry. It is filed as cell-based. Conditions: androgen-dependent VCaP cells, 0.08-5 μM darolutamide for 7 days. The procedure:
(§1) The effect of darolutamide and 225Ac-pelgifatamab on PSMA mRNA and protein expression in vitro was studied in VCaP and 22Rv1 prostate cancer cells. To assess PSMA protein expression, VCaP and 22Rv1 cells were treated with 0.08-5 μM darolutamide for 7 days and PSMA expression was determined by flow cytometry using the murine PSMA-specific monoclonal antibody (mAb) J591 (prepared in-house). To assess FOLH1 gene expression, 22Rv1 cells were treated with 2 μM darolutamide and/or 0.15 kBq/mL 225Ac-pelgifatamab for 24 or 48 h. RNA was extracted with the RNeasy Plus Mini Kit (Qiagen), transcribed to cDNA using SuperScript IV VILO Master Mix (Invitrogen), and analyzed by qPCR.
(In general: Flow cytometry measures light scatter and fluorescence of single cells or particles in a stream.)

For data set [2], the system named is PSMA expression in 22Rv1 cells. As to the kind of experiment: PSMA protein expression by flow cytometry. It is filed as cell-based. As to conditions: androgen-independent 22Rv1 cells, 0.08-5 μM darolutamide for 7 days. The procedure:
as §1

The subject of data set [3] is PSMA expression in 22Rv1 tumors. As to the kind of experiment: In vivo PSMA protein expression in 22Rv1 tumors by flow cytometry. Details: species or system mice. As to conditions: isolated 22Rv1 tumors, darolutamide 100 mg/kg BID p.o. for 18 days. The procedure:
In vivo expression of PSMA protein was evaluated in 22Rv1 prostate tumor-bearing male nude (nu/nu) mice treated with vehicle or darolutamide (100 mg/kg, BID, p.o) for 18 days. 22Rv1 tumors were extracted (n=2) and dissociated tumor cells were analyzed by flow cytometry using the J591 antibody.

A short description of data set [4]: Size exclusion chromatography (SEC-UV) of Pelgifatamab TACs. The data set is classed as physicochemical. Conditions: SEC-UV of TAC after radiolabeling. The procedure: Purity of the TACs were determined by SEC-UV. The method separates higher aggregate, dimer and fragments from the ACC monomer. The separation was done using a Acquity UPLC Protein BEH SEC, 1.7 μm, 200 Å, 4.6×300 mm column operated at 30° C. The mobile phase was 170 mM Ammonium acetate and 300 mM NaCl containing 10% 2-propanol and 0.1 mM DCTA. The flowrate was 0.3 mL/min, and the ACCs were detected at UV 280 nm. The analysis was performed on an Agilent 1200 series HPLC with 35 μL injections.
On the technique in general: SEC sorts molecules by how far they enter the pores of the column.

A short description of data set [5]: Radiochemical purity (RCP) of Pelgifatamab TACs by iTLC. The data set is classed as physicochemical. As to conditions: for RCP (radiochemical purity): iTLC after Ac-225 labeling at 2 MBq/mg, macropa at room temperature, DOTA at 60° C., one hour. The procedure:
The mixture was incubated for one hour at room temperature for macropa-Pelgifatamab while the two DOTA-Pelgifatamab ACCs were incubated for one hour at 60° C. on a heating block. The RCP of the TACs was measured by instant thin layer chromatography using citrate buffer for elution, three replicates for each sample. […] The measurement of radioactivity was done with a Digital Gamma-Ray Spectrometer (DSPEC-50, Ortec). The activities were measured at least 6 hours after radiolabeling to allow daughter nuclides to be in equilibrium with Ac-225. […] Pelgifatamab-macropa and the PSMA binding antibody J591 conjugated with DOTA were both labeled with actinium-225. Labeling was performed at room temperature. J591-DOTA was also labeled at 60° C. Radiochemical purity was determined by instant thin-layer chromatography (iTLC). Labeled and free actinium-225 were counted in a germanium detector using actinium-225 specific energy lines. Actinium-225-labeling of pelgifatamab was efficient at room temperature as compared with actinium-225-labeling of the murine monoclonal PSMA antibody J591 (225Ac-J591, FIG. 8).

The test system of the next data set is 22Rv1 cells. As to conditions: 22Rv1 cells (printed 22R1), 5 days.
For another data set, the system named is CDKN1A. The data set is described as follows: Gene expression by RT-qPCR in 22Rv1 cells. It is filed as cell-based. Conditions: 24 or 48 h. (Real-time PCR tracks product formation cycle by cycle.)
A further data set has as its system XRCC2. As to the kind of experiment: Gene expression by RT-qPCR in 22Rv1 cells. It is filed as cell-based. As to conditions: 24 or 48 h.
The test system of another data set is PC-3 cells. As to conditions: PSMA negative PC-3 cells, 5 days.
For data set [6], the system named is LNCaP prostate cancer model. The data set is described as follows: In vivo antitumor efficacy in LNCaP model. Details: species or system mice. Conditions: total antibody dose 0.75 mg/kg. The procedure: Antitumor efficacy of 225Ac-pelgifatamab was assessed in the LNCaP prostate cancer model: Male SCID mice (6 weeks, 22 g, Janvier Labs) were implanted s.c. with testosterone pellets (12.5 mg, 4 mm) and 1-3 days later, inoculated s.c. with 5×10^6 LNCaP cells. When the tumors reached an average size of 160 mm^3, mice were randomized (n=10 mice/group), and two days later, treated with vehicle or a single i.v. dose of ^225Ac-pelgifatamab (70, 125, or 250 kBq/kg, total antibody dose 0.75 mg/kg). The study was terminated on day 112 after tumor cell inoculation.

Another data set concerns DU-145 cells. As to conditions: PSMA negative DU-145 cells, 5 days.
For data set [7], the system named is C4-2 prostate cancer cells xenograft. As to the kind of experiment: In vivo efficacy study in C4-2 xenograft. On the set-up: species or system mice. As to conditions: single dose IV 300 kBq/kg, total antibody dose 0.14 mg/kg. The procedure:
The compounds Ac-225-macropa-Pelgifatamab, Ac-225-DOTA-Pelgifatamab and isotype-macropa were labeled with 225Ac. Mice xenografted with C4-2 prostate cancer cells were treated with a single dose IV of 300 kBq/kg with a total antibody dose of 0.14 mg/kg. […] Body weight loss was less than 10% for all targeted treatment groups. Effects on the hematopoietic system were determined by WBC counts at the end of the experiment (FIG. 16 (C)).

The next data set has as its system LNCaP cells. Conditions: 5 days.
Data set [8] concerns PSMA-expressing prostate cancer xenograft model MDA PCa 2b. Conditions: 72-504 hours. The procedure:
Biodistribution of Ac-225-macropa-Pelgifatamab was investigated in the PSMA-expressing prostate cancer xenograft model MDA PCa 2b. Female RJ: NMRI-Foxn1nu/nu mice were implanted with testosterone pellets subcutaneously and were inoculated with 1×10^6 MDA PCa 2b cells on the right flank. Animals were pre-treated with 200 μg/mouse unspecific IgG2a antibody 24 hours prior to hot dosing. Animals were treated with 300 kBq/kg Ac-225-macropa-Pelgifatamab IV at a total protein dose of 0.75 mg/kg. In a separate in vivo study the xenograft model MDA PCa 2b was treated with 250 kBq/kg Ac-225-DOTA-Pelgifatamab at a protein dose of 0.14 mg/kg. In both studies, animals were sacrificed 72, 168, 336, and 504 hours post treatment and 225Ac in blood, tumor, liver, kidney, spleen and femur was determined.

Another data set relates to C4-2 cells. As to conditions: 5 days.
The subject of a further data set is KUCaP-1 tumors. The data set is described as follows: In vivo antitumor efficacy in KUCaP-1 model. Details: species or system mice. From the text: In a KUCaP-1 efficacy study, male scid/scid mice (8 weeks, 22 g, Janvier Labs) were implanted s.c. with 5×5×5 mm KUCaP-1 tumor fragments. When the tumors reached an average size of 220 mm^3, mice were randomized (n=9-10 mice/group), and the next day, treated with vehicle or a single i.v. injection of isotype control (300 kBq/kg, […] mg/kg). In addition, for one treatment group, tumors were allowed to reach a size of 470 mm^3, before treatment with a single dose of 300 kBq/kg ^225Ac-pelgi. The study was terminated on day 72 after tumor cell inoculation.

Where [9] appears, read: 300 kBq/kg IV, 0.75 mg/kg total protein.

Experimental for C4-2 cells: (§2) Cells were treated for 5 days and subsequentially cell viability was determined using CellTiterGlo (Promega).
Experimental for DU-145 cells: as §2
Experimental for LNCaP cells: as §2
Experimental for PC-3 cells: as §2

Turning to `CC(O)c1cc(C(=O)N[C@@H](C)Cn2ccc(-c3ccc(C#N)c(Cl)c3)n2)[nH]n1` (some centres unmarked) [Darolutamide, darolutamide], the T/C with 22Rv1 tumors (100 mg/kg, BID, p.o.) worked out at 0.78. Besides, the “induction of PSMA expression” value is “more than 10 fold” in data set [1] and above 2 fold in [2]. For the same molecule, the “increase in PSMA expression compared with vehicle” value in data set [3] is on record as 50 fold.

For the molecule Ac-225-DOTA-Pelgifatamab CAR 5.7, in [4], the Aggregate is listed as 18.4 Area % (UV), the Dimer is on record as 3.0 Area % (UV) and the Monomer was 78.6 Area % (UV). Moreover, the “RCP (radiochemical purity)” value in data set [5] is given as 99.2%.

Take Ac-225-DOTA-Pelgifatamab CAR 12.7: in [4], the Aggregate is 30.5 Area % (UV), the Dimer is 4.8 Area % (UV) and the Monomer is recorded as 64.7 Area % (UV). For the same molecule, in data set [5], the “RCP (radiochemical purity)” value is given as 99.5%.

As to Ac-225-macropa-Pelgifatamab, the cytotoxicity result was “Strong cytotoxicity” with 22Rv1 cells; “little cytotoxicity” in the data set with PC-3 cells; “little cytotoxicity” with DU-145 cells; “Strong cytotoxicity” with LNCaP cells; “Strong cytotoxicity” with C4-2 cells. The “RNA expression of CDKN1A” value with CDKN1A was “increased”. The T/C is recorded as 0.71 in the data set with 22Rv1 tumors (75 kBq/kg, single dose, i.v.) and 0.41 *** with 22Rv1 tumors (300 kBq/kg, single dose, i.v.). In addition, in the data set with XRCC2, the “expression of XRCC2” value was “decreased”. Moreover, the “T/Cvolume (treatment/control) ratio” value in [6] (70 kBq/kg single dose i.v.), in [6] (125 kBq/kg single dose i.v.) and in data set [6] (250 kBq/kg single dose i.v.) was 0.00 throughout. The Dimer in data set [4] was 0.5 Area % (UV). In addition, the Monomer in data set [4] is given as 99.5 Area % (UV). The “antitumor activity compared with Ac-225-DOTA-Pelgifatamab” value in data set [7] is given as “higher antitumor activity”. Moreover, in [5], the “RCP (radiochemical purity)” value worked out at 99.9%. Further, the radiochemical purity in data set [5] (iTLC after radiolabeling at room temperature (FIG. 8)) stood at 100%. Moreover, in data set [8], the “radioactivity in the liver compared with 225Ac-DOTA-Pelgifatamab” value is “lower and over time decreasing radioactivity”. In addition, in data set [8], the “uptake in the spleen compared with 225Ac-DOTA-Pelgifatamab” value is “less uptake”. Besides, the “accumulation in normal organs” value in [8] (setting [9]) was “generally low and transient”. Also, the “tumor accumulation of 225Ac” value in data set [8] (setting [9]) is “strong and persistent tumor accumulation”. In addition, in data set [8] (femur), the “clearance from the bone compared with 225Ac-DOTA-Pelgifatamab” value is recorded as “improved clearance”. The T/Cvolume ratio in the data set on KUCaP-1 tumors (75 kBq/kg single dose) is on record as 0.55; with KUCaP-1 tumors (150 kBq/kg single dose) it was 0.44; in the data set with KUCaP-1 tumors (300 kBq/kg single dose), 0.26. The “effect on large tumors” value with KUCaP-1 tumors (single dose 300 kBq/kg, tumors 470 mm^3 at treatment start) is recorded as “induced tumor regression”.
